{"source": "paper PMC4301919", "about": "“Helical Defects in MicroRNA Influence Protein Binding by TAR RNA Binding Protein”", "binders": {"B1": {"name": "ds22 (dsRNA)", "RNA 1": "GUCAGCAGUGCCUUAGCAGCAC", "RNA 2": "GUGCUGCUAAGGCACUGCUGAC"}, "B2": {"name": "miR-16-1/miR-16-1* (dsRNA)", "RNA 1": "UAGCAGCACGUAAAUAUUGGCG", "RNA 2": "CCAGUAUUAACUGUGCUGCUGAA"}, "B3": {"name": "ds33 (dsRNA)", "RNA 1": "GGUCAGCAGUGCCUUAGCAGCACGUAAAUAUGG", "RNA 2": "CCAUAUUUACGUGCUGCUAAGGCACUGCUGACC"}}, "key": {"[1]": {"target": "T1, TRBP-ΔC-RBD1-Null (UniProt Q15633-2 9-215, K23A;K59A;K60A)", "T1 sequence": "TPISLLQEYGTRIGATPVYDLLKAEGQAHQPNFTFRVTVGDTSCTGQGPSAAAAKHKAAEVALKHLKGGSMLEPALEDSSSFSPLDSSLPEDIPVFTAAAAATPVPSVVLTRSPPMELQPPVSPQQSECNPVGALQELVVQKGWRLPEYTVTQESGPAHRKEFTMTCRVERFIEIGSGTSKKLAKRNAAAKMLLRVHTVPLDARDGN", "experiment": "EMSA; apparent Kd; nH 3.1; 50 mM sodium cacodylate pH 7.0, 50 mM potassium glutamate, 5% glycerol; EMSA 0.5 pM RNA, 30 min at room temperature, gel 0.25X TBE at 10 C; CD at 10 C with 5-15 uM RNA", "conditions": "protein: recombinant; label: 5'-32P top strand (EMSA); blunt"}, "[2]": {"target": "T2, TRBP-ΔC-RBD2-Null (UniProt Q15633-2 9-215, K150A;K189A;K190A)", "T2 sequence": "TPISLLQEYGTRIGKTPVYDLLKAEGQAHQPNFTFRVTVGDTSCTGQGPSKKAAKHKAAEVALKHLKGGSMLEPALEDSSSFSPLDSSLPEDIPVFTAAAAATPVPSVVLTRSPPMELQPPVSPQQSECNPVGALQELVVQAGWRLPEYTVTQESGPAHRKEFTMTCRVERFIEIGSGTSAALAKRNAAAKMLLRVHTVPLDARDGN", "experiment": "EMSA; apparent Kd; nH 3.2; 50 mM sodium cacodylate pH 7.0, 50 mM potassium glutamate, 5% glycerol; EMSA 0.5 pM RNA, 30 min at room temperature, gel 0.25X TBE at 10 C; CD at 10 C with 5-15 uM RNA", "conditions": "protein: recombinant; label: 5'-32P top strand (EMSA); blunt"}, "[3]": {"target": "T2, TRBP-ΔC-RBD2-Null", "experiment": "EMSA; apparent Kd; nH 2.0; 50 mM sodium cacodylate pH 7.0, 50 mM potassium glutamate, 5% glycerol; EMSA 0.5 pM RNA, 30 min at room temperature, gel 0.25X TBE at 10 C; CD at 10 C with 5-15 uM RNA", "conditions": "protein: recombinant; label: 5'-32P top strand; imperfect duplex with U-bulge and A-A mismatch"}, "[4]": {"target": "T1, TRBP-ΔC-RBD1-Null", "experiment": "EMSA; apparent Kd; nH 3.0; 50 mM sodium cacodylate pH 7.0, 50 mM potassium glutamate, 5% glycerol; EMSA 0.5 pM RNA, 30 min at room temperature, gel 0.25X TBE at 10 C; CD at 10 C with 5-15 uM RNA", "conditions": "protein: recombinant; label: 5'-32P top strand (EMSA); blunt"}, "[5]": {"target": "T2, TRBP-ΔC-RBD2-Null", "experiment": "EMSA; apparent Kd; nH 3.4; 50 mM sodium cacodylate pH 7.0, 50 mM potassium glutamate, 5% glycerol; EMSA 0.5 pM RNA, 30 min at room temperature, gel 0.25X TBE at 10 C; CD at 10 C with 5-15 uM RNA", "conditions": "protein: recombinant; label: 5'-32P top strand (EMSA); blunt"}}}
{"binder": "B1", "values": [{"measurement": "Kd", "setting": "[1]", "result": "2290 ± 80", "unit": "nM"}, {"measurement": "Kd", "setting": "[2]", "result": "340 ± 10", "unit": "nM"}]}
{"binder": "B2", "values": [{"measurement": "Kd", "setting": "[3]", "result": "900 ± 100", "unit": "nM"}]}
{"binder": "B3", "values": [{"measurement": "Kd", "setting": "[4]", "result": "1220 ± 70", "unit": "nM"}, {"measurement": "Kd", "setting": "[5]", "result": "440 ± 50", "unit": "nM"}]}
